Laboratory results published in paper PMC4970993, “Kinetic studies on recombinant UDP-glucose: sterol 3-O-β-glycosyltransferase from Micromonospora rhodorangea and its bioconversion potential” (AMB Express, 2016).

Experiments:
purified protein = substrate: CC(C)CCC[C@@H](C)[C@H]1CC[C@H]2[C@@H]3CC=C4C[C@@H](O)CC[C@]4(C)[C@H]3CC[C@]12C; assay: purified protein; settings: glycosyl acceptor, 0.8 mM UDP-Glc, 50 mM Tris-HCl pH 7.4 (pH 7.5), 5 mM MgCl2, 30 °C, apparent
[1] = substrate: C/C=C(\CC[C@@H](C)[C@H]1CC[C@H]2[C@@H]3CC=C4C[C@@H](O)CC[C@]4(C)[C@H]3CC[C@]12C)C(C)C; assay: HPLC-MS/MS of sterol glucoside formation, Michaelis-Menten fit; assay type: biochemical, Micromonospora echinospora; settings: glycosyl acceptor, 0.8 mM UDP-Glc, 50 mM Tris-HCl pH 7.4 (pH 7.5), 5 mM MgCl2, 30 °C, apparent
Source text: (§1) HPLC-MS/MS of sterol glucoside formation, Michaelis-Menten fit on MrSGT

[2] = substrate: C=C(CC[C@@H](C)[C@H]1CC[C@H]2C3=CC[C@H]4[C@H](C)[C@@H](O)CC[C@]4(C)[C@H]3CC[C@]12C)C(C)C; assay: as above; assay type: biochemical, Micromonospora echinospora; settings: glycosyl acceptor, 0.8 mM UDP-Glc, 50 mM Tris-HCl pH 7.4 (pH 7.5), 5 mM MgCl2, 30 °C, apparent
Source text: as §1

[3] = substrate: CC(C)[C@H](C)CC[C@@H](C)[C@H]1CC[C@H]2[C@@H]3CC=C4C[C@@H](O)CC[C@]4(C)[C@H]3CC[C@]12C; assay: as above; assay type: biochemical, Micromonospora echinospora; settings: glycosyl acceptor, 0.8 mM UDP-Glc, 50 mM Tris-HCl pH 7.4 (pH 7.5), 5 mM MgCl2, 30 °C, apparent
Source text: as §1

[4] = substrate: O=c1ccn([C@@H]2O[C@H](CO[P@@](=O)(O)O[P@@](=O)(O)O[C@H]3O[C@H](CO)[C@@H](O)[C@H](O)[C@H]3O)[C@@H](O)[C@H]2O)c(=O)[nH]1; assay: as above; assay type: biochemical, Micromonospora echinospora; settings: glycosyl donor, 0.6 mM β-sitosterol as acceptor, 50 mM Tris-HCl pH 7.4 (pH 7.5), 5 mM MgCl2, 30 °C, apparent
Source text: as §1

[5] = substrate: [H][C@@]12CC=C3C[C@@H](O)CC[C@]3(C)[C@@]1([H])CC[C@@]1(C)[C@@]2([H])CC[C@]1([H])[C@H](C)CC[C@@H](CC)C(C)C; assay: as above; assay type: biochemical, Micromonospora echinospora; settings: glycosyl acceptor, 0.8 mM UDP-Glc, 50 mM Tris-HCl pH 7.4 (pH 7.5), 5 mM MgCl2, 30 °C, apparent
Source text: as §1

B1: MrSGT (Micromonospora echinospora) (protein)
chain: MRILIATAGSRGDVAPYTGLGAALRRAGYDVAVATTDTFARMVRDAGLGFRRLPADTRGHAGVRSNREVVRAAGVHRGTGPGLRRRAVSEGTDLLLLSTTTAPLGWLIGEATGIRSLGVYLQPTAPTADFPPVVTGARSLGRLGNRTAGRLALRMADRIYAEAVAGLRERLCLPPLSAAAMRARQERAGWPVLHGFGTALVPRPADWRPGLEVVGPWWPHHDAGERLPSELEDFLDAGPRPVLVGFGSMAAGDGERLSELAVRALRRAGLRGILQSGNACLAAEGDDVLTVGDVPHALLFPRLAAVVHHGGAGTRRDPAGGRPLGGGPGDRRPEPFWAGRLARIGAAPAPVPFTTLTADGLAGALGRVVGDEAYARAAEKAARHLAAEDGAARV
notes: recombinant His-tagged protein expressed in E. coli BL21(DE3), purified; ORF from fosmid library
- Km (purified protein): 450 ± 50 µM
- kcat (purified protein): 0.132 ± 0.0185 s⁻¹
- kcat/Km (purified protein): 292 M⁻¹ s⁻¹
- Km [1]: 130 ± 20 µM
- kcat [1]: 0.122 ± 0.0273 s⁻¹
- kcat/Km [1]: 940 M⁻¹ s⁻¹
- Km [2]: 510 ± 60 µM
- kcat [2]: 0.13 ± 0.017 s⁻¹
- kcat/Km [2]: 257 M⁻¹ s⁻¹
- Km [3]: 280 ± 30 µM
- kcat [3]: 0.128 ± 0.0165 s⁻¹
- kcat/Km [3]: 457 M⁻¹ s⁻¹
- Km [4]: 280 ± 30 µM
- kcat [4]: 0.122 ± 0.0172 s⁻¹
- Km [5]: 90 ± 10 µM
- kcat [5]: 0.122 ± 0.0172 s⁻¹
- kcat/Km [5]: 1350 M⁻¹ s⁻¹
